The target in assay [1] is T1, human ROR1 protein (ROR1-His; Sino Biological, Catalog #13968-H08H) (human, UniProt Q01973 30-406).
T1 construct: extracellular domain; Bought protein; also called human recombinant ROR1 protein
Kind of assay: ELISA, plate coated with ROR1-His (1 ug/ml), bound antibody detected with HRP-conjugated anti-Fab polyclonal antibody, OD at 450 nm. As to the method: (§1) The binding affinity of the anti-ROR1 antibody-antigen was evaluated using an ELISA-based solution binding assay. Specifically, 96-well microtiter plates (Nunc-Immuno Plates, NUNC) were coated with ROR1 protein (ROR1-His; sino biological, Catalog #13968-H08H) at a concentration of 1 μg/ml in PBS solution at 4° C. for 16 hours, and non-specific binding sites were blocked with 1% (v/v) BSA (bovine serum albumin) for 2 hours.
(§2) Subsequently, on the 96-well microtiter plates, anti-ROR1 antibodies at concentrations stated in FIGS. 1a to 1c were added to the microtiter plates, and their binding capabilities were analyzed by ELISA as follows. Specifically, after incubating at 37° C. for 2 hours, the plates were washed five times with PBS containing 0.05% (v/v) Tween 20, then the HRP-conjugated Fab polyclonal antibody reagent (Pierce, Catalog #31414) was diluted at a 1:30,000 ratio and added to the washed microtiter plates, then reacted for 1 hour at 37° C., then detected the bound anti-ROR1 antibodies. After reaction, the color was developed using TMB (tetramethylbenzidine, Sigma, T0440). The enzymatic reaction was stopped with 0.5 mol/L sulfuric acid, and the absorbance was read at 450 nm and 650 nm using a microplate reader (Molecular Devices).

In assay [2] the target is T1, human ROR1 protein (ROR1-His; Sino …). Kind of assay: ELISA, plate coated with ROR1-His (1 ug/ml), bound antibody detected with HRP-conjugated anti-Fab polyclonal antibody, OD at 450 nm; lower graph and table. Here is the method:
as §1, §2
Background: ELISA stands for enzyme-linked immunosorbent assay.

For assay [3] the target is unchanged. Kind of assay: ELISA, plate coated with ROR1-His (1 ug/ml), bound antibody detected with HRP-conjugated anti-Fab polyclonal antibody, OD at 450 nm; upper graph and table. As to the method:
as §1, §2

Assay [4] has the same target. The assay can be described thus: ELISA, plate coated with ROR1-His (1 ug/ml), bound antibody detected with HRP-conjugated anti-Fab polyclonal antibody, OD at 450 nm; lower graph and table. Here is the method: as §1, §2
This is another data set of the same source.

The target is the same in assay [5]. The assay can be described thus: ELISA, plate coated with ROR1-His (1 ug/ml), bound antibody detected with HRP-conjugated anti-Fab polyclonal antibody, OD at 450 nm; upper graph and table. As to the method:
as §1, §2
The source holds these as a separate data set.

Assay [6] has the same target. Kind of assay: ELISA, plate coated with ROR1-His (1 ug/ml), bound antibody detected with HRP-conjugated anti-Fab polyclonal antibody, OD at 450 nm; upper table (the graph's legend names the third curve M8_N97G). As to the method:
as §1, §2

Eleven molecules from US20260015418A1 (ABL BIO, published 2026) can be followed below.

Where a chain is given by its changes, count along the chain named.

B1: M1 (PTM mutant of BA6 IgG) (antibody, V domains shown)
VH: EVQLLESGGGLVQPGGSLRLSCAASGFTFSNYDMSWVRQAPGKGLEWVSAIYHSGSSKYYADSVKGRFTISRDNSKNTLYLQMNSLRAEDTAVYYCARGGNGAWDTGFDYWGQGTLVTVSS
VL: QSVLTQPPSASGTPGQRVTISCSGSSSNIGSNDVSWYQQLPGTAPKLLIYYANNRPSGVPDRFSGSKSGTSASLAISGLRSEDEADYYCGAWDDSLSGYVFGGGTKLTVL
notes: IgG of BA6 with one mutation
Turning to B1, the concentration giving a half-maximal response (EC50) (usually the concentration giving half of the maximal effect) in assay [1] amounted to 0.326 nM.

B2: BA6 IgG(NA) (antibody, V domains shown)
VH: B1 VH
VL: QSVLTQPPSASGTPGQRVTISCSGSSSNIGSNDVSWYQQLPGTAPKLLIYYDNNRPSGVPDRFSGSKSGTSASLAISGLRSEDEADYYCGAWDDSLSGYVFGGGTKLTVLG
Take B2: the EC50 in assay [2] came out at 0.299 nM.

B3: M4 (PTM mutant of BA6 IgG) (antibody, V domains shown)
VH: B1 VH
VL: B1 VL with A52S
notes: IgG of BA6 with one mutation; Kabat L51
For B3, the midpoint of the response in assay [1], the EC50, lay at 10.2 nM.

B4: M2 (PTM mutant of BA6 IgG) (antibody, V domains shown)
VH: B1 VH
VL: B1 VL with A52T
notes: as for B3
Molecule B4 had an EC50 in assay [1] of 10.2 nM.

B5: M7 (PTM mutant of BA6 IgG) (antibody, V domains shown)
VH: B1 VH with G102R
VL: B1 VL with A52D
notes: IgG of BA6 with one CDRH3 mutation
B5 yielded an EC50 in assay [2] of 12.5 nM.

B6: M5 (PTM mutant of BA6 IgG) (antibody, V domains shown)
VH: B1 VH with G102Y
VL: B1 VL with A52D
notes: as for B5
B6 had an EC50 in assay [1] of 3.27 nM.

B7: M3 (PTM mutant of BA6 IgG) (antibody, V domains shown)
VH: B1 VH
VL: B1 VL with A52E
notes: as for B3
As for B7, the EC50 was determined as 0.333 nM in assay [1], 0.478 nM in assay [3], 0.189 nM in assay [4] and 0.755 nM in assay [5].

B8: M8 (PTM mutant of BA6 IgG) (antibody, V domains shown)
VH: B1 VH with N101G
VL: B1 VL with A52D
notes: IgG of BA6 with one CDRH3 mutation; Kabat H97 (same column as M9)
For B8, it took 7.56 nM to reach a half-maximal effect in assay [3] (EC50).

B9: M10 (PTM mutant of BA6 IgG) (antibody, V domains shown)
VH: B1 VH with N101Y
VL: B1 VL with A52D
notes: as for B8
In turn, B9 yielded an EC50 in assay [3] of 2.76 nM.

B10: M6 (PTM mutant of BA6 IgG) (antibody, V domains shown)
VH: B1 VH with G102V
VL: B1 VL with A52D
notes: as for B5
As to B10, the midpoint of the response in assay [1], the EC50, lay at 0.955 nM.

B11: M9 (PTM mutant of BA6 IgG) (antibody, V domains shown)
VH: B1 VH with N101S
VL: B1 VL with A52D
notes: IgG of BA6 with one CDRH3 mutation; Kabat H97
B11 gave an EC50 in assay [6] of 1.08 nM.
